Laboratory results published in article PMC2800207.

Assays:
Test in all cases: fluorescence anisotropy
[1] = target: NusB D118N (NusB101) (Escherichia coli, UniProt P0A780 1-139, D118N)
[2] = target: NusB (Escherichia coli, UniProt P0A780 1-139)
[3] = target: NusB K2E (Escherichia coli, UniProt P0A780 1-139, K2E)
[4] = target: NusB D118A (Escherichia coli, UniProt P0A780 1-139, D118A)
[5] = target: NusB D118K (Escherichia coli, UniProt P0A780 1-139, D118K)
[6] = target: NusB D118R (Escherichia coli, UniProt P0A780 1-139, D118R)

| Binder | Kd [1] [nM] | Kd [2] [nM] | binding result [1] | binding result [2] | also measured |
| --- | --- | --- | --- | --- | --- |
| CACUGCUCUUUAACAAUUA (ssRNA) [rrnG BoxA-spacer] | 24 ± 4 | 130 ± 20 | – | – | Kd [3]: 3600 nM |
| AUAGCGGCCACAUUCCA (ssRNA) [nutR BoxA69-spacer (boxA transversion)] | – | – | no binding | no binding | – |
| CGCUAUUACACAUUCCA (ssRNA) [nutR BoxA16-spacer (C38A)] | – | 5100 ± 1400 | – | – | – |
| CGCUCUUACACAUUCCA (ssRNA) [nutR BoxA-spacer] | – | – | – | – | binding result [4]: no binding; binding result [5]: no binding; binding result [6]: no binding |
| CGCUCUUA (ssRNA) [nutR BoxA] | 290 ± 15 | 1600 ± 100 | – | – | – |
| CACAUUCCA (ssRNA) [nutR spacer] | – | – | no binding | no binding | – |
| CGCUCUUAAAAAUUAA (ssRNA) [nutL BoxA-spacer] | – | 2200 ± 800 | – | – | Kd [3]: 5100 nM |
| UGCUCUUUA (ssRNA) [rrnG BoxA] | 50 ± 15 | 200 ± 10 | – | – | – |
| AAAAUUAA (ssRNA) [nutL spacer] | – | – | no binding | no binding | – |
| CGCUCGUACACAUUCCA (ssRNA) [nutR BoxA(U39G)-spacer] | – | 1600 ± 800 | – | – | – |
